As a reminder, the Kd is a measure of binding affinity in units of concentration. Usually kon stands for the second-order rate constant of association. As usually defined, the koff is a measure of how fast the partners let go of each other.

Data on eight molecules can be found in article PMC8764033, “Single-molecule analysis of specificity and multivalency in binding of short linear substrate motifs to the APC/C” (Nature Communications, 2022).

“And” between values parts separate entries of the source, which are not always exact repeats. Identical values can stand only once. Where no end group is shown, it is not given here. Cy5 = cyanine-5 fluorescent label

Details in all cases: both partners purified
In assay [1] the target is T1, GFP-tagged WD40 domain of yeast Cdh1 (aa 241–550), for SMOR (S. cerevisiae, UniProt P53197 241-550).
T1 construct: Cdh1, S. cerevisiae, WD40 domain, aa 241-550; also called Cdh1^WD40; GFP-tagged Cdh1^WD40; source: Sf9, baculovirus, purified (StrepTrap); not shown: 2xStrep-Tag II, N-terminal, kept; GFP, C-terminal, kept
T1 sequence (looked up): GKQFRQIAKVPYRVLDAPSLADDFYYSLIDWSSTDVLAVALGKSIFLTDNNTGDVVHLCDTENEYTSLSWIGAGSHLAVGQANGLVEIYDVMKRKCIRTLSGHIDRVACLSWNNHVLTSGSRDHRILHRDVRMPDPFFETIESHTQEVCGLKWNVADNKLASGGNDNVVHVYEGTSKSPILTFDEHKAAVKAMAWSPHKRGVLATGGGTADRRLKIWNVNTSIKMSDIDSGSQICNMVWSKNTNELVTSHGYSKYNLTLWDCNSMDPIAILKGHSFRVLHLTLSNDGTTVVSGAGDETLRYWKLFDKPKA
Briefly: single-molecule off-rate (SMOR) assay, TIRF microscopy; target held on PEG/PEG-biotin glass by NeutrAvidin and biotinylated anti-Strep-Tag II antibody (tag on the activator); dye-labeled ligand (peptide no greater than 1 nM) in buffer C + BSA (20 mM HEPES pH 7.5, 150 mM KCl, 10% glycerol, 0.05% Tween-20, 1 mM DTT) with oxygen scavengers; mean dwell time from an exponential distribution; dwell times below 100 ms ….

Assay [2] has as its target T2, Cdh1-activated yeast APC/C (S. cerevisiae | S. cerevisiae …, UniProt P53197 1-566; P53886 1-1748; P09798 1-840; P38042 1-758; P53068 1-250).
T2 construct: Apc1 subunit of the APC/C, from yeast strain NHY13; Cdc16 subunit of the APC/C (Cdc16-TAP); Cdc27 subunit of the APC/C; Apc10/Doc1 subunit of the APC/C; only Apc1, Cdc16, Cdc27 and Apc10 are named; the yeast strain lacks endogenous Cdh1; TEV cleavage of the TAP tag may leave part of the tag on Cdc16; also called APC/C^Cdh1; not shown: 2xStrep-Tag II, N-terminal, kept; GFP, C-terminal, kept; …
The assay is described as above.

For assay [3], the target named is T3, GFP-tagged WD40 domain of human Cdh1 (aa 165–484), for SMOR (human, UniProt Q9UM11 165-484).
T3 construct: human Cdh1, WD40 domain, aa 165-484; also called hCdh1^WD40; human Cdh1^WD40; source: Sf9, baculovirus, purified (StrepTrap); not shown: 2xStrep-Tag II, N-terminal, kept; GFP, C-terminal, kept
T3 sequence (Q9UM11 165-484): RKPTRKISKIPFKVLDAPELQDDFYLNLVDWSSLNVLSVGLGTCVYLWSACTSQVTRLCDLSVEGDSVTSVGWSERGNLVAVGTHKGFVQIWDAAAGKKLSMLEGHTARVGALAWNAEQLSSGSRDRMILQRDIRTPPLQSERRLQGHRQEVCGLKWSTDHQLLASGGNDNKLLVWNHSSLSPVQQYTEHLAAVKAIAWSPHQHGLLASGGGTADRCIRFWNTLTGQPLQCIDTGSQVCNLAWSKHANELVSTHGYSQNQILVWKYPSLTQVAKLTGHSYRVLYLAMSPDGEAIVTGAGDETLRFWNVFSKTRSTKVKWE
The description is as above.

The target in assay [4] is T4, WD40 domain of Cdh1 from Saccharomyces cerevisiae (aa 241–550), for anisotropy (S. cerevisiae, UniProt P53197 241-550).
T4 construct: Cdh1, S. cerevisiae, WD40 domain, aa 241-550; Cloned into pFastBac HT A; also called Cdh1^WD40; Cdh1 WD40; source: Sf9, baculovirus, purified (StrepTrap)
T4 sequence (looked up): T1 sequence (looked up)
The experiment in a line: fluorescence polarisation; fluorescence anisotropy; 10 nM C-terminally Cy5-labeled peptide mixed with increasing concentrations of purified protein (Cdh1 WD40 up to 30.6 µM); wash buffer B (50 mM Tris-HCl pH 8, 150 mM KCl, 0.5 mM EDTA, 1 mM DTT, 10% glycerol); 25 °C; one-site equilibrium fit.

The target of assay [5] is T5, Cdc20-activated yeast APC/C (S. cerevisiae | S. cerevisiae …, UniProt P26309 1-610; P53886 1-1748; P09798 1-840; P38042 1-758; P53068 1-250).
T5 construct: Apc1 subunit of the APC/C, from yeast strain NHY13; Cdc16 subunit of the APC/C (Cdc16-TAP); Cdc27 subunit of the APC/C; Apc10/Doc1 subunit of the APC/C; only Apc1, Cdc16, Cdc27 and Apc10 are named; TEV cleavage of the TAP tag may leave part of the tag on Cdc16; also called APC/C^Cdc20; not shown: 2xStrep-Tag II, N-terminal, kept; GFP, C-terminal, kept; copies: + + + + + + + + + + + + +
The experiment in a line: single-molecule off-rate (SMOR) assay, TIRF microscopy; target held on PEG/PEG-biotin glass by NeutrAvidin and biotinylated anti-Strep-Tag II antibody (tag on the activator); dye-labeled ligand (peptide no greater than 1 nM) in buffer C + BSA (20 mM HEPES pH 7.5, 150 mM KCl, 10% glycerol, 0.05% Tween-20, 1 mM DTT) with oxygen scavengers; mean dwell time from an exponential distribution; dwell times below 100 ms ….

In assay [6] the target is T6, GFP-tagged WD40 domain of human Cdc20 (aa 162–484), for SMOR (human, UniProt Q12834 162-484).
T6 construct: human Cdc20, WD40 domain, aa 162-484; also called hCdc20^WD40; human Cdc20^WD40; source: Sf9, baculovirus, purified (StrepTrap); not shown: 2xStrep-Tag II, N-terminal, kept; GFP, C-terminal, kept
T6 sequence (Q12834 162-484): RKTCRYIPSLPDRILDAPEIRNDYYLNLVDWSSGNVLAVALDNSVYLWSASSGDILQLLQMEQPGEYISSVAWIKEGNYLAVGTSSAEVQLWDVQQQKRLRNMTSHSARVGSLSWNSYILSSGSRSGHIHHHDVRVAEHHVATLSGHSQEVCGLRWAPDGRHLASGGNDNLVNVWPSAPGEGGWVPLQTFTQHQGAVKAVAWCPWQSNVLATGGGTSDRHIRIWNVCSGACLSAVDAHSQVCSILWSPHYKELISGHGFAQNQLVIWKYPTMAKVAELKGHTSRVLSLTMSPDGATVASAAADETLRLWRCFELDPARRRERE
The description is as above.

Assay [7] addresses T7, WD40 domain of human Cdh1 (aa 165–484), for anisotropy (human, UniProt Q9UM11 165-484).
T7 construct: human Cdh1, WD40 domain, aa 165-484; Cloned into pFastBac HT A; also called human Cdh1 WD40; source: Sf9, baculovirus, purified (StrepTrap)
Briefly: fluorescence polarisation; fluorescence anisotropy; 10 nM C-terminally Cy5-labeled peptide mixed with increasing concentrations of purified protein (Cdh1 WD40 up to 30.6 µM); wash buffer B (50 mM Tris-HCl pH 8, 150 mM KCl, 0.5 mM EDTA, 1 mM DTT, 10% glycerol); 25 °C; one-site equilibrium fit. On the technique in general: In fluorescence polarisation assays a small probe gives low polarisation when free and higher when bound to something large.

The target in assay [8] is T8, WD40 domain of human Cdc20 (aa 162–484), for anisotropy (human, UniProt Q12834 162-484).
T8 construct: human Cdc20, WD40 domain, aa 162-484; Cloned into pFastBac HT A; also called human Cdc20 WD40; source: Sf9, baculovirus, purified (StrepTrap)
T8 sequence (Q12834 162-484): as above
The description is as above.

The target in assay [9] is T4, WD40 domain of Cdh1 from Saccharomyces …. The experiment in a line: fluorescence polarisation; fluorescence anisotropy as a1, 10 nM labeled Hsl1 degron peptide with 100 µM unlabeled peptide of the other Hsl1 degron present.
In assay [10] the target is T1, GFP-tagged WD40 domain of yeast Cdh1 …. Briefly: fluorescence polarisation + other: single-molecule off-rate (SMOR) assay; inferred constants: kon from the KD of anisotropy and the koff of SMOR; KD for APC/C^Cdh1 from the dwell time with the kon of Cdh1 alone assumed.
The target of assay [11] is T2, Cdh1-activated yeast APC/C. Described as above.
Assay [12] deals with T3, GFP-tagged WD40 domain of human Cdh1 …. Described as above.
Assay [13] has as its target T1, GFP-tagged WD40 domain of yeast Cdh1 …. Briefly: single-molecule off-rate (SMOR) assay, TIRF microscopy; target held on PEG/PEG-biotin glass by NeutrAvidin and biotinylated anti-Strep-Tag II antibody (tag on the activator); dye-labeled ligand (peptide no greater than 1 nM) in buffer C + BSA (20 mM HEPES pH 7.5, 150 mM KCl, 10% glycerol, 0.05% Tween-20, 1 mM DTT) with oxygen scavengers; mean dwell time from an exponential distribution; dwell times below 100 ms …. The source holds these as a separate data set.

T7 sequence (Q9UM11 165-484): as the sequence (Q9UM11 165-484) above

B1: Hsl1 fragment (amino acids 667–872) with C-terminal HaloTag, mutations in the D box (domain or fragment)
chain: QNSASKRSLYSLQSISKRSLNLNDLLVFDDPLPSKKPASENVNKSEPHSLESDSDFEILCDQILFGNALDRILEEEEDNEKERDTQRQRQNDTKSSADTFTISGVSTNKENEGPEYPTKIEKNQFNMSYKPSENMSGLSSFPIFEKENTLSSSYLEEQKPKAAAASDITASFNKMNKQEGMRIEKKIQREQLQKKNDRPSPLKPIQ
modifications: JF549 or JF646 dye covalently bound to the HaloTag
As for B1, the mean dwell time in assay [1] worked out at 0.421 s; in assay [2] it was 0.374 s.

Take LIYVDKENGEPGTRK-Cy5 [Cy5-labeled hSecurin KEN box peptide]: the mean dwell time in [3] was 0.174 s.

PANEDKENNIVYTGK-Cy5 [Cy5-labeled ySecurin KEN peptide]: the mean dwell time in [3] came out at 0.869 s. The Kd in assay [4] is 26 µM and 40 µM.

Consider AQQQGRLPLAAKDNNRSKSFIK-Cy5 [Cy5-labeled ySecurin D box peptide], for which the results for the mean dwell time in [2] and in [5] were 0.132 s and 1.87 s, respectively.

Turning to EQKPKRAALSDITNSFNKMNK-Cy5 [Cy5-labeled Hsl1 D box peptide], the mean dwell time in [6] is 1.08 s; in assay [3] it was 4.52 s; in assay [1], 0.36 s; in [2], 35.3 s; in assay [5], 0.412 s. Besides, the Kd in [7] was around 2000 nM; in assay [8], around 2000 nM; in [4], 3.5 µM and 4 µM; in [11] it was 36 nM. Further, the “fold improvement of affinity with unlabeled Hsl1 KEN peptide, against no KEN peptide” value in assay [9] is around 3 fold. Also, the kon in assay [10] stood at 800000 M⁻¹ s⁻¹; in assay [12], 100000 M⁻¹ s⁻¹. Also, the koff in [13] is 2.8 s⁻¹.

Consider LPKATRKALGTVNRATEKSVKK-Cy5 [Cy5-labeled AurKB D box peptide], for which, in assay [3], the mean dwell time came to 0.202 s.

As for GVSTNKENEGPEYPTKIEK-Cy5 [Cy5-labeled Hsl1 KEN peptide], the mean dwell time in assay [3] amounted to 1.48 s; in assay [1], 0.166 s; in assay [2] it was 0.185 s. In assay [4], the dissociation constant Kd is 14 µM and 12 µM. For the same molecule, the “fold improvement of affinity with saturating unlabeled D box peptide, against no D box peptide” value in [9] is around 4 fold.

On to QDSKPRRALTDVPVNNNPLSQK-Cy5 [Cy5-labeled Clb5 D box peptide], for which the mean dwell time is 0.054 s in assay [6], 0.159 s in assay [2] and 0.207 s in assay [5].
